{
  "source": "the RNAGym collection of RNA variant scans (doi:10.1073/pnas.2313332121)",
  "parents": {"B1": {"name": "TPR 5TU (parent)", "chain": "GGAUCUUCUCGAUCUAACAAAAAAGACAAAUCUGCCACAAAGCUUGAGAGCAUCUUCGGAUGCAGAGGCGGCAGCCUUCGGUGGCGCGAUAGCGCCAACGUUCUCAACUAUGACACGCAAAACGCGUGCUCCGUUGAAUGGAGUUUAUCAUG"}},
  "note": "This sample holds only a part of the variants without activity.",
  "data": [
    {"variants_of": "B1", "assay": "polymerase ribozyme fitness, log enrichment relative to wild type (log ratio); higher = more active; in vitro selection for triplet polymerase activity", "procedure,_shortened": "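The heterodimeric triplet polymerase ribozyme's subunits were each mutagenized into PCR-built libraries and transcribed. Every library was selected once, in triplicate, by annealing with a biotinylated primer, the partner subunit and triplets, incubating frozen at −7 °C, gel-excising extended constructs, capturing on streptavidin beads and running RT-PCR. Input and output libraries were Illumina-sequenced, with genotypes kept only at ≥10 input reads and ≥1 read per output. Fitness, from inverse-variance-weighted replicate averages, is the base-2 logarithm of genotype enrichment over wild-type enrichment.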", "values": [
      {"variant": "GGAUCUUCUCGAUCUAACAAAUAAGACAAAUCUGCCACAAUGCUUGAGAGCAUCUUCGGAUGCAGAGGCGGCAGCCUUCGGUGGCGCGAUAGCGCCAACGUUCUCAACUAUGACACGCAAAACGCGUGCUCCGUUGAAUGGAGUUUAUCAUG", "note": "[A22U A41U]", "polymerase ribozyme fitness (log ratio)": 0.0369},
      {"variant": "GGAUCUUCUCGAUCUAACAAAUAAGACAAAUCUGCCACAAAGCUUGCGAGCAUGUUCUGAUGCAGAGGCGGCAGCCUUCGGUGGCGCGAUAGCGCCAACGUUCUCAACUAUGACACGCAAAACGCGUGCUCCGUUGAAUGGAGUUUAUCAUG", "note": "[A22U A47C C54G G58U]", "polymerase ribozyme fitness (log ratio)": -0.551},
      {"variant": "GGAUCUUCUCGAUCUAACAAAUAAGACAAAUCUGCCACAAGGCUUGAGAGCAUCUUCGGAUGCAGAGGCGGCAGCCUUCGAUGGCGUGAUAGCGCCAAUGUUCUCAACUAUGACACGCGAAACGCGUGCUCCGUUGAAUGGAGUUUAUCAUA", "note": "[A22U A41G G81A C87U C99U A119G G152A]", "polymerase ribozyme fitness (log ratio)": -2.3},
      {"variant": "GGAUCUUCUCGAUCUAACAAAUAAGACAAAUCUGCCACAAGGCUUGAGAGCAUCUUCGGAUGCAGAGGCGGCAGCCUUCGGUGGCGCGAUAGUGCCAACGUUCUCAUUUAUGACACGCAAAACGCGUGUUCCUUUGAAUGGCGUUUAUCAUG", "note": "[A22U A41G C93U A107U C108U C129U G133U A142C]", "polymerase ribozyme fitness (log ratio)": "≤ -4.2"},
      {"variant": "GGAUCUUCUCGAUCUAACAAAUAAGACAAAUCUGCCACAAAGCUUGUGGGCAUCUUCGGAUGCAGAGGCGGCAGCCUUCGGUGGCGCGAUAGCGCCAACGUUCUCAACUAUGACACGCAAAACGCGUGCUCCCUUGAAUGGUGUUUAUCAUG", "note": "[A22U A47U A49G G133C A142U]", "polymerase ribozyme fitness (log ratio)": "≤ -4.2"},
      {"variant": "GGAUCUUCUCGAUCUAACAAAUAAGACAAAUCUGCCACUAAGCUUGAGAGCAUCUUUGAAUGCAGAGGCGGCAGCCUUCGGUGGCGCGAUAGCGCCAACGGUCUCAACUAUGACACGCAAAACGCGUGCUCCGUUGAAUGGAGUUUACCCUG", "note": "[A22U A39U C57U G59A U101G U148C A150C]", "polymerase ribozyme fitness (log ratio)": "≤ -4.2"},
      {"variant": "GGAUCUUCUCGAUCUAACAAAUAAGACAAAUCUGCCGCAAGGCUUGACAGCAUCUUCGGAUGCAGAGGCGGCAGCCUUCGGUGGCGCGAUAGCUCCAACGUUCUCAACUAUGACACGCAAAACGCGUGCUCCGUUGAAUGGAGUUUAUCAUG", "note": "[A22U A37G A41G G48C G94U]", "polymerase ribozyme fitness (log ratio)": "≤ -4.2"},
      {"variant": "GGAUCUUCUCGAUCUAACAAAUAAGACAAAUCUGCCACUAGGCUUGAGAGCCUCUUCGGAUGCAGAGGCGGCAGCCUUCGGUUGCGCGAUAGCACCAACGUUCUCAACUAUGACACGCAAAACGCGUGCUCCGUUGAAUGGAGUUUAUCAUC", "note": "[A22U A39U A41G A52C G83U G94A G152C]", "polymerase ribozyme fitness (log ratio)": -4.02},
      {"variant": "GGAUCUUCUCGAUCUAACAAAUAAGACAAAUCUGCCACAUACCUUGAGAGCAUCUUCGGAUGCAGAGGCGGCAGACUUCGGUGGCGCGAGAGCGCCAACGUUCUCAACUAUGACACGCAAAACGCGUGCUCCGUUGAAUGGAGUUUAUCAUG", "note": "[A22U A40U G42C C75A U90G]", "polymerase ribozyme fitness (log ratio)": "≤ -4.2"},
      {"variant": "GGAUCUUCUCGAUCUAACAAAUAAGACAAAUCUGCCACAAAGCUUGAGCGCAUCUUCGGAUGCAGAGGGCGCAGCCUUCGGUGGCGCGAUAGCGCCAACGAUCUCAACUAUGACACGCAAAACGCGUGCUCCGUUGAAUGGAGUUUAUCAUG", "note": "[A22U A49C C69G G70C U101A]", "polymerase ribozyme fitness (log ratio)": "≤ -4.2"},
      {"variant": "GGAUCUUCUCGAUCUAACAAAUAAGACAAAUCUGCCACAAAGCUUGAGGGCAUUUUCGGAUGCAGAGGCGGCAGCCUUCGGUGGUGCGAUAGCGCCAACGUUCUCAACUAUGACACGCAAAACGCGUGCUCCGUUGAAUGGAGUUUAUCAUG", "note": "[A22U A49G C54U C85U]", "polymerase ribozyme fitness (log ratio)": -0.721},
      {"variant": "GGAUCUUCUCGAUCUAACAAAUAAGACAAAUCUGCCACAAAGCUUGAGAGCCUCUUCGGAUGCAAAGGCGGCAGCCUUCGGUGGCGCGAUAGCGCCAACGUUCUCAACUAUGACACGCAAAACGCGUGCUCGGUUGAAUUGAGUUUAUCAUG", "note": "[A22U A52C G65A C132G G140U]", "polymerase ribozyme fitness (log ratio)": -3.17},
      {"variant": "GGAUCUUCUCGAUCUAACAAAUAAGACAAAUCUGCCACAAUGCUUGAGAGCAUCUUCGGUUGCAGAGGCGGCAGCCUUCGGUGGCGCGAUAGCGCCAACGUUCUCUACUAUGACACGCAAAACGCGUGCUCCGUUGAAUGGAGUUUAUCAUG", "note": "[A22U A41U A60U A106U]", "polymerase ribozyme fitness (log ratio)": -4.16},
      {"variant": "GGAUCUUCUCGAUCUAACAAAUAAGACAAAUCUGCCACAAAGCUUGUGAGCAUCUUCGGAUGCAGAGGCGGCAGCCUUCGGUGGCGCGAUAGCGCUAACGUUCUCAACUAUGACACGCAAAACGCGUGCUCCGUUGAAUGGAGUUUAACAUG", "note": "[A22U A47U C96U U148A]", "polymerase ribozyme fitness (log ratio)": -4.14},
      {"variant": "GGAUCUUCUCGAUCUAACAAAUAAGACAAAUCUGCCACAAAGCUUGAGUGCAUCUUCGGAUGCAGAGGCGGCAGCCUUCGGUGGCGCGAUAGCGCCAACGUUCUCAACUAUGACACGCAAAACGCGUGCUCCGUUGAAUGGAGUUUAUCAUG", "note": "[A22U A49U]", "polymerase ribozyme fitness (log ratio)": -0.913},
      {"variant": "GGAUCUUCUCGAUCUAACAAAUAAGACAAAUCUGCCGCAAAGCUUGAGCGCAUCUUCGGAUUCAGAGGCGGCAGGAUUCGUUGGGGCGAUAGCGCCAACGUUCUCAACUAUGACACGCAAAACGCGUCCUCCGUUGAAUGGAGUUUAUCAUG", "note": "[A22U A37G A49C G62U C75G C76A G81U C85G G128C]", "polymerase ribozyme fitness (log ratio)": "≤ -4.2"},
      {"variant": "GGAUCUUCUCGAUCUAACAAAUAAGACAAAUCUGCCACUCAGCUUGAGAGCAUCUUCGGAUGCAGCGGCGGCAGCCUUCGGUGGCGCGAUAGCGCCAACGUUCUUAACUAUGACACGCAAAACGCGUGCUCCGUUGAAUGGAGUUUAUCAUG", "note": "[A22U A39U A40C A66C C105U]", "polymerase ribozyme fitness (log ratio)": "≤ -4.2"},
      {"variant": "GGAUCUUCUCGAUCUAACAAAUAAGACAAAUCUGCCACAGAGCUUGAGAGCAUCUUCGGAUGCAGAGGCGGCAGCCUUCGGUGACGCGAUAGCGCCAACGUUCUCAACUAUGACACGCGAAACGCGUGCUCCGUUGAAUGGAGUUUAUCAUG", "note": "[A22U A40G G84A A119G]", "polymerase ribozyme fitness (log ratio)": -2.75},
      {"variant": "GGAUCUUCUCGAUCUAACAAAUAAGACAAAUCUGCCACAAAGCUUGUGAGCAGCAUUGGAUGCAGAGACGGCAGCCUUCGGUGGCCCGAUAGCGCCAAUGUUCUCAACUAUGACACGCAAAACGCGUGCUCCGUUGACUGGAGUUUAGCAUG", "note": "[A22U A47U U53G U55A C57U G68A G86C C99U A138C U148G]", "polymerase ribozyme fitness (log ratio)": "≤ -4.2"}
    ]}
  ]
}
